This is an account of results in US20130108548A1 (VECT HORUS, published 2013).

In test [1] the target is rat LDLR on rat brain capillary endothelial cells (RBCEC) (rat) (UniProt P35952). Nature of the test: cell-based or functional assay.
The target in test [2] is mouse LDLR in tissues of wild-type mice (mouse, UniProt P35951 22-862). The experiment in a line: cell-based or functional assay.
For test [3], the target named is T1, human low-density lipoprotein receptor fused with RFP, on CHO-hLDLR-RFP cells (human, UniProt P01130 22-860).
T1 construct: whole, on cells; also called human LDLR; not shown: red fluorescent protein (RFP) fused at the C-term (intracellular end)
The experiment in a line: competition on CHO-hLDLR-RFP cells: 10 uM test peptide against 10 uM SEQ ID NO: 17/STag, STag read by FRET.

Positions of bridges follow the written chain, without caps; N, C: chain ends. Non-standard residues stand in square brackets, D forms with d. No end group written: not given here.

Chain of mouse LDLR in tissues of wild-type mice (P35951 22-862): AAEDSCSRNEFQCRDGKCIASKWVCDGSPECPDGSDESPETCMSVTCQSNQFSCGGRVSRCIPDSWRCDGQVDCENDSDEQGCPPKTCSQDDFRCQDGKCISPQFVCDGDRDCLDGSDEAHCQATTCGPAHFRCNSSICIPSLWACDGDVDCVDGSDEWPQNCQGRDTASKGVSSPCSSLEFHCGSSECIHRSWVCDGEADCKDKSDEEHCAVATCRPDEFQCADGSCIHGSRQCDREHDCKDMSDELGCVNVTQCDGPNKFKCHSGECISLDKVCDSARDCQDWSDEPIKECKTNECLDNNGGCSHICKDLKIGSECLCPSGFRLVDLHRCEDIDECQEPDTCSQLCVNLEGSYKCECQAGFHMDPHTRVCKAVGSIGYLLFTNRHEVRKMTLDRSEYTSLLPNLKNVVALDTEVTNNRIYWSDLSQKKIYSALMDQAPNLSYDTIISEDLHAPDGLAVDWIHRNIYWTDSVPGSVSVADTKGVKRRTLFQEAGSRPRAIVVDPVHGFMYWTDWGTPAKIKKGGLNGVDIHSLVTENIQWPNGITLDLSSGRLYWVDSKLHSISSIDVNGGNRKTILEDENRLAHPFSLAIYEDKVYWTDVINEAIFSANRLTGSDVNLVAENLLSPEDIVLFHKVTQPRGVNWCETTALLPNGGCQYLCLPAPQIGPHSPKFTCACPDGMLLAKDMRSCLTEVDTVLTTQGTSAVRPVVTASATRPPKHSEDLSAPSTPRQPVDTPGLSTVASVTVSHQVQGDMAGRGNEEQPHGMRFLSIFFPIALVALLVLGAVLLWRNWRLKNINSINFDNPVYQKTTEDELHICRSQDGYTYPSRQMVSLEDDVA
Chain of rat LDLR on rat brain capillary endothelial cells (RBCEC) (rat) (P35952 22-879): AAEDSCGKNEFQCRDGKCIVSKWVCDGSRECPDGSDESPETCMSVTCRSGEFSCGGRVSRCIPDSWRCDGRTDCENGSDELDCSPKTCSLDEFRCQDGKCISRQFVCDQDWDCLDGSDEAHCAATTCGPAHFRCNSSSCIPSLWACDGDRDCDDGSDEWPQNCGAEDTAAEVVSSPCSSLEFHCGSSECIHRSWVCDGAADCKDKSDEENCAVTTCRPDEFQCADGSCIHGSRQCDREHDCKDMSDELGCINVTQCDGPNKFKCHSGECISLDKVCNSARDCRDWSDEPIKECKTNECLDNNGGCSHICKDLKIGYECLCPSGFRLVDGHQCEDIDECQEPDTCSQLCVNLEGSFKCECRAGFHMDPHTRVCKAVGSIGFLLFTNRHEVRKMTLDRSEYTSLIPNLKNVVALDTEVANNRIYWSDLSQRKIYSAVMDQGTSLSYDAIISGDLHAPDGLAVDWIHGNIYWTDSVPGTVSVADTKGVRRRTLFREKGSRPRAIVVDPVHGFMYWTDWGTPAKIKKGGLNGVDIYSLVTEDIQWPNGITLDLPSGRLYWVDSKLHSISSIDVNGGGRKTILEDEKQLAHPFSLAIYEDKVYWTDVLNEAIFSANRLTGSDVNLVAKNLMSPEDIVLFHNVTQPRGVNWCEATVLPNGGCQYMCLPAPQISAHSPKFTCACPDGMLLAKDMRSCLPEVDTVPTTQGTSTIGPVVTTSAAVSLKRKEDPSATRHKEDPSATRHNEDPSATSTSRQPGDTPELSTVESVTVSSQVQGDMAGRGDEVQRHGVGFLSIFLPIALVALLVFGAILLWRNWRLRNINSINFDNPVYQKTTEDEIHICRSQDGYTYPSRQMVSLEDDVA

Take “LDL made fluorescent by adsorption of DiI (ligand)”: the saturation of the transport into the lower compartment of the in-vitro BBB model (WT) (µg per insert) in test [1] stood at 4.

B1: peptide SEQ ID NO: 5 radiolabelled using tritium (peptide)
peptide: XMXRLRGC
modifications: (D)-pen at 1; Thz at 3; tritiated, by the method of Example IX a tritiated propionyl group on the N-term amine
Regarding B1, in test [2], the “peptide concentration in the adrenal glands, LDLR-KO mice compared to wild-type mice, 10 min after intravenous injection” value is roughly 2 fold decrease; the “peptide concentration in the intestine, LDLR-KO mice compared to wild-type mice, 10 min after intravenous injection” value is roughly 6 fold decrease; the “peptide concentration in the liver, LDLR-KO mice compared to wild-type mice, 10 min after intravenous injection” value is roughly 5 fold decrease.

B2: peptide SEQ ID NO: 10 (peptide)
peptide: [dC]MPRLR[dA]C
modifications: disulfide 1-8 (inferred)
notes: also called (D)-cys-Met-Pro-Arg-Leu-Arg-(D)-ala-Cys
Regarding B2, the “Displacement of the control peptide” value in test [3] amounted to 54%.
